According to the supplement of paper PMC10126150:
± gives the standard deviation of the averaged measurements.

Tested on: ATP
Experiment: switch fluorescence ratio, 500 uM ATP over buffer (Cy3 cluster intensity, sum of 5 cycles each) (fold (ratio)); higher = stronger signal-on switching upon ATP binding; sequences stand for … in TCGTCGGCAGCGTCAGATGTGTATAAGAGACAGTTTTTTTTTTTTTTTTTTTTTTTTT…TC
Conditions: aptamer strand: ATP DNA aptamer (quencher-CACCTGGGGGAGTATTGCGGAGGAAGG + anchor), 100 nM annealed; ATP concentration: 500 uM
In short: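 Between each of five buffer/ATP cycles, the flow-cell was stripped with NaOH and re-annealed. Each cycle imaged Cy3-labelled switching-strand clusters, annealed to 100 nM quencher-labelled ATP aptamer on a modified Illumina MiSeq flow-cell, first in selection buffer and then after 15 min with 500 uM ATP at 22 °C. The fluorescence ratio is summed target-cycle over summed buffer-cycle Cy3 intensity per cluster, averaged per switch-domain sequence, with clusters outside 100-1000 RFU excluded.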
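Further: ATP exposure 15 min at 22 °C before imaging.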

| Sequence | switch fluorescence ratio |
| --- | --- |
| ATGTTTTTTC | 0.977 ± 0.037 |
| ATTAAAACTT | 1.05 ± 0.026 |
| ATTAAAAGGT | 1 ± 0.026 |
| ATTAAAGTTA | 1.01 ± 0.013 |
| ATTAAATGGC | 1.02 ± 0.012 |
| ATTAAATTTC | 0.987 ± 0.014 |
| ATTAAGAGGT | 1.034 ± 0.0075 |
| ATTAAGATGT | 1.002 ± 0.0049 |
| ATTAAGCTGT | 1.009 ± 0.01 |
| ATTAAGTCGC | 1.01 ± 0.022 |
| ATTAATAGCA | 0.9745 ± 0.0089 |
| ATTAATCGCT | 0.9931 ± 0.0042 |
| ATTAATCGGC | 0.9735 ± 0.0033 |
| ATTAATCTT | 1.011 ± 0.0016 |
| ATTAATTAAT | 1 ± 0.034 |
| ATTAATTGGG | 1.01 ± 0.036 |
| ATTACAATAG | 1.095 ± 0.0077 |
| ATTACGCCA | 1.17 ± 0.11 |
| ATTACGGCAT | 1.18 ± 0.047 |
| ATTACGGTCA | 1.02 ± 0.038 |
| ATTAGAAGAC | 1 ± 0.027 |
| ATTAGAATTA | 0.982 ± 0.062 |
| ATTAGATGTT | 0.9635 ± 0.0029 |
| ATTAGCAATG | 1.354 ± 0.006 |
| ATTAGCGTCA | 0.991 ± 0.018 |
| ATTAGCTCGC | 0.97 ± 0.023 |

| Sequence | switch fluorescence ratio |
| --- | --- |
| ATTAGCTTCC | 3 ± 0.33 |
| ATTAGGAGTC | 0.999 ± 0.012 |
| ATTAGGGAAT | 0.976 ± 0.04 |
| ATTAGGGTTA | 0.9928 ± 0.0088 |
| ATTAGGGTTC | 1.44 ± 0.47 |
| ATTAGTAGAA | 0.995 ± 0.016 |
| ATTAGTAGGT | 0.976 ± 0.012 |
| ATTAGTAGTT | 0.996 ± 0.057 |
| ATTAGTCTAT | 0.988 ± 0.036 |
| ATTAGTCTGC | 0.996 ± 0.033 |
| ATTAGTGCCG | 1.04 ± 0.14 |
| ATTATAAGGG | 1.02 ± 0.056 |
| ATTATCAGGT | 1.06 ± 0.057 |
| ATTATGATGC | 0.992 ± 0.014 |
| ATTATGATTG | 0.98 ± 0.028 |
| ATTATGCTGC | 0.977 ± 0.033 |
| ATTATGCTTT | 1 ± 0.021 |
| ATTATGGCGA | 1.04 ± 0.023 |
| ATTATGGGTC | 1 ± 0.043 |
| ATTATGGGTT | 0.995 ± 0.029 |
| ATTATGTAGG | 0.988 ± 0.015 |
| ATTATGTCGT | 1 ± 0.013 |
| ATTATGTGTC | 0.959 ± 0.048 |
| ATTATTAGTC | 1.01 ± 0.022 |
| ATTATTGCGT | 1.03 ± 0.04 |
| ATTATTTCCC | 1.05 ± 0.082 |

| Sequence | switch fluorescence ratio |
| --- | --- |
| ATTATTTGAC | 1.08 ± 0.067 |
| ATTATTTGGT | 1.01 ± 0.014 |
| ATTATTTTTT | 1.02 ± 0.046 |
| ATTCAAGTCA | 1.03 ± 0.025 |
| ATTCACAGTT | 1.03 ± 0.033 |
| ATTCACCCGC | 1.48 ± 0.13 |
| ATTCAGAAGA | 1.07 ± 0.12 |
| ATTCAGCCGC | 1.62 ± 0.083 |
| ATTCAGGTTT | 0.992 ± 0.026 |
| ATTCATAGGC | 1 ± 0.052 |
| ATTCATGATA | 0.975 ± 0.013 |
| ATTCATGTTG | 0.996 ± 0.014 |
| ATTCCGTATT | 1.44 ± 0.68 |
| ATTCCTCGAC | 1.67 ± 0.11 |
| ATTCCTTTTT | 0.9996 ± 0.0094 |
| ATTCGAATCG | 1.05 ± 0.12 |
| ATTCGAATGT | 0.9994 ± 0.0013 |
| ATTCGAGCTG | 1.002 ± 0.0034 |
| ATTCGAGGTT | 0.987 ± 0.071 |
| ATTCGCATGT | 1.15 ± 0.04 |
| ATTCGCTGCT | 1 ± 0.02 |
| ATTCGGAGGG | 0.984 ± 0.011 |
| ATTCGGGATA | 1 ± 0.02 |
| ATTCGGGATG | 0.979 ± 0.017 |
| ATTCGGGCCA | 1.01 ± 0.037 |
